First the molecules themselves.
B1: Adenylate kinase, P07170 (parent)
chain: MSSSESIRMVLIGPPGAGKGTQAPNLQERFHAAHLATGDMLRSQIAKGTQLGLEAKKIMDQGGLVSDDIMVNMIKDELTNNPACKNGFILDGFPRTIPQAEKLDQMLKEQGTPLEKAIELKVDDELLVARITGRLIHPASGRSYHKIFNPPKEDMKDDVTGEALVQRSDDNADALKKRLAAYHAQTEPIVDFYKKTGIWAGVDASQPPATVWADILNKLGKD

Variants of B1 are the subject of the data set. The settings on record: Saccharomyces cerevisiae (strain ATCC 204508 / S288c), Thermal, Fluorescence, reversible: yes, structure 2AKY, whole UniProt chain shown; for unfolding free energy / ddG of mutation (higher = less stable): 25 °C.

In general, Tm refers to the temperature at which the thermal transition is half complete. In the case of T112H, where the note is “pH 4.5, Acetic acid-NaOH 30 mM”, the unfolding free energy was 0.72 kcal/mol, the Tm came out at 40.2 °C and the “unfolding enthalpy (van 't Hoff)” value amounted to 31.1 kcal/mol. For the same variant, under “pH 7.6, MOPS-NaOH 30 mM”, the unfolding free energy was 1.2 kcal/mol, the Tm is 42.9 °C and the “unfolding enthalpy (van 't Hoff)” value was 41.8 kcal/mol.

As for N171D, where the note is “pH 7.5, MOPS-NaOH 30 mM”, the “ddG of mutation (higher = less stable)” value is 2.15 kcal/mol; the unfolding free energy stood at 1.67 kcal/mol; the Tm came out at 47.1 °C; the “change of melting temperature, mutant - wild type (higher = more stable)” value (“change of melting temperature, mutant” for short) is -0.6 °C. Further, where the note is “pH 7.5, MOPS-NaOH 30 mM”, the “unfolding enthalpy (van 't Hoff)” value amounted to 47.8 kcal/mol.

Regarding V10I, where the note is “pH 7.5, MOPS-NaOH 30 mM”, the “ddG of mutation (higher = less stable)” value worked out at 1.2 kcal/mol; the unfolding free energy was 2.63 kcal/mol; the midpoint of thermal melting (Tm) stood at 46.2 °C; the “change of melting temperature, mutant” value was -1.5 °C. The “unfolding enthalpy (van 't Hoff)” value (pH 7.5, MOPS-NaOH 30 mM) was found to be 64.5 kcal/mol.

Turning to T79H, for the setting “pH 5, Acetic acid-NaOH 30 mM”, the unfolding free energy was found to be 2.87 kcal/mol, the Tm turned out to be 46.8 °C and the “unfolding enthalpy (van 't Hoff)” value was found to be 68.1 kcal/mol. For the same variant, where the note is “pH 7.5, MOPS-NaOH 30 mM”, the “ddG of mutation (higher = less stable)” value was determined as 2.15 kcal/mol; the unfolding free energy was 1.67 kcal/mol; the Tm stood at 46.6 °C; the “change of melting temperature, mutant” value was -1.1 °C. For the same variant, under “pH 7.5, MOPS-NaOH 30 mM”, the “unfolding enthalpy (van 't Hoff)” value is 50.2 kcal/mol.

As to I215F, for the setting “pH 7.5, MOPS-NaOH 30 mM”, the “ddG of mutation (higher = less stable)” value is 1.91 kcal/mol; the unfolding free energy is 1.91 kcal/mol; the Tm worked out at 40 °C; the “change of melting temperature, mutant” value is -7.7 °C. In addition, the “unfolding enthalpy (van 't Hoff)” value (pH 7.5, MOPS-NaOH 30 mM) came out at 59.8 kcal/mol.

(Values after FireProtDB (doi:10.1111/j.1432-1033.1995.tb20713.x).)
